Measurements taken from patent US20230414778A1, “COMBINATION OF ANTIBODY-DRUG CONJUGATE WITH ANTI-SIRPalpha ANTIBODY” (DAIICHI SANKYO COMPANY, LIMITED, priority 2020, published 2023).

Columns and labels:
cancer cells = conditions: known from literature; cited from earlier work
SIRPγ = SIRPγ (Homo sapiens, UniProt Q9P1W8); conditions: Patent References 1 to 3; cited from earlier work
[1] = test system: all 10 types of SIRPα variant; conditions: Patent References 1 to 3; cited from earlier work
SIRPβ1 = SIRPβ1 (Homo sapiens, UniProt O00241); conditions: Patent References 1 to 3; cited from earlier work
SIRPα V1 = SIRPα V1 (Homo sapiens, UniProt P78324); conditions: Patent References 1 to 3; cited from earlier work
4T1-hmHER2 cells = assay: Antitumor study (1); assay type: in vivo, BALB/c mice; conditions: single administration, 10 mg/kg, Day 21
Method: Individuals having a tumor volume of beyond 3000 mm^3 were humanly killed from an ethical point of view for animal experiments.
The antibody-drug conjugate (1) (Drug-to-Antibody Ratio: 7.6) was diluted with PBS, and a dose of 10 mL/kg was intravenously administered to the tail vein.
To mouse breast cancer cell line 4T1 (CRL-2539) purchased from the American Type Culture Collection, a human/mouse chimera HER2 gene was transfected by use of a lentivirus vector to prepare 4T1-hmHER2 cells, which were put in use. The cells express a human/mouse chimera HER2 protein on the cell membrane. Then, 4T1-hmHER2 cells were suspended in PBS and 1.0×10^6 cells were subcutaneously inoculated into the right axilla of each of the BALB/c mice (Day 0). Four days later, the mice were randomly grouped (Day 4). The antibody-drug conjugate (1) was intravenously administered at a dose of 10 mg/kg on Day 4 and 11 (two times in total) to the tail vein. […] P value was expressed to four decimal places and the results satisfying P<0.05 (two-sided test) were determined as being significant.

CT26.WT-hTROP2 cells = assay: Antitumor study (2); assay type: in vivo, BALB/c mice; conditions: single administration, 10 mg/kg, Day 18
Method: Mouse: Female 6-week-old BALB/c mice (BALB/c AnNCrlCrlj) (bred by CHARLES RIVER LABORATORIES JAPAN, INC.) were subjected to experiments. Measurement and calculation formula: the long diameter and short diameter of tumors were measured twice a week with an electronic digital caliper (CD15-CX, manufactured by Mitutoyo Corporation), and the tumor volumes (mm^3) were calculated. The calculation formula is shown below: […] Individuals having a tumor volume of beyond 3000 mm^3 were humanely killed from an ethical point of view for animal experiments. […] An anti-SIRPα antibody (clone: 5C12) was diluted with PBS, and a dose of 10 mL/kg was intraperitoneally administered. […] The cells express a human TROP2 protein on the cell membrane. CT26.WT-hTROP2 cells were suspended in saline, and 2.0×10^6 cells were subcutaneously inoculated into the right axilla of each of the BALB/c mice (Day 0). Seven days later, the mice were randomly grouped (Day 7). […] The anti-SIRPα antibody (clone: 5C12) was intraperitoneally administered at a dose of 10 mg/kg on Day 8, 11 and 13 (three times in total). […] Measurement of the tumor volume was continued until Day 18. […] P value was expressed to four decimal places and the results satisfying P<0.05 (two-sided test) were determined as being significant.

CT26.WT-HER3 cells = assay: Antitumor study (3); assay type: in vivo, BALB/c mice; conditions: single administration, 10 mg/kg, Day 18
Method: Mouse: Female 6-week-old BALB/c mice (BALB/c AnNCrlCrlj) (bred by CHARLES RIVER LABORATORIES JAPAN, INC.) were subjected to experiments.
Measurement and calculation formula: the long diameter and short diameter of tumors were measured twice a week with an electronic digital caliper (CD15-CX, manufactured by Mitutoyo Corporation), and the tumor volumes (mm^3) were calculated. The calculation formula is shown below:
Tumor volume (mm^3)=0.5×Long diameter (mm)×[Short diameter (mm)]^2
Individuals having a tumor volume of beyond 3000 mm^3 were humanely killed from an ethical point of view for animal experiments.
The antibody-drug conjugate (3) (Drug-to-Antibody Ratio: 8) and an anti-SIRPα antibody (clone: 5C12) were diluted with PBS, and used for administration.
To mouse colorectal cancer cell line CT26.WT (CRL2638) purchased from the American Type Culture Collection, a human HER3 gene was transfected by use of a lentivirus vector to prepare CT26.WT-HER3 cells, which were put in use. The cells express a human HER3 protein on the cell membrane. CT26.WT-HER3 cells were suspended in saline, and 2.0×10^6 cells were subcutaneously inoculated into the right axilla of each of the BALB/c mice (Day 0). Seven days later, the mice were randomly grouped (Day 7). […] P value was expressed to four decimal places and the results satisfying P<0.05 (two-sided test) were determined as being significant.

mouse SIRPα antigen = target: T1, mouse SIRPα antigen (Mus musculus, UniProt P97797); assay: Binding affinity to mouse SIRPα antigen
T1 sequence (P97797 32-513): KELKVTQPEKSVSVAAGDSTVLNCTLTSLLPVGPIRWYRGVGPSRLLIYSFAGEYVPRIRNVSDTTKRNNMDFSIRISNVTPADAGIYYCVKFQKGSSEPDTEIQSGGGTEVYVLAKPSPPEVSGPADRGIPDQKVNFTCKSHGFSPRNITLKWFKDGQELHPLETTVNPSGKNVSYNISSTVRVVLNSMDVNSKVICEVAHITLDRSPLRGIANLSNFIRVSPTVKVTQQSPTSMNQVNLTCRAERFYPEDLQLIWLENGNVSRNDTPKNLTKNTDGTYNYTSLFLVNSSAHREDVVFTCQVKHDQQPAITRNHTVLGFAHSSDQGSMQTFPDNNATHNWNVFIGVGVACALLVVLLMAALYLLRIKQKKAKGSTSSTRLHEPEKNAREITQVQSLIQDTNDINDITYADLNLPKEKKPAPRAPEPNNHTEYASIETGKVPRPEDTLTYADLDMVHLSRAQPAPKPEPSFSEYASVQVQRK
Method: The lymph node cells and mouse myeloma SP2/0-ag14 cells (ATCC: CRL-1581) were fused in accordance with a polyethylene glycol method. The fused cells were suspended in HAT selective medium and cultured in accordance with the limiting dilution method. The hybridoma colonies that emerged were collected. In this manner, monoclonal hybridomas were prepared. The collected hybridoma colonies were cultured. Using the resultant hybridoma culture supernatant, an antibody-producing hybridoma was screened based on binding activity to a mouse SIRPα protein as an index. In this manner, clone: 5C12 was screened.

Sequence of SIRPβ1 (O00241 30-398): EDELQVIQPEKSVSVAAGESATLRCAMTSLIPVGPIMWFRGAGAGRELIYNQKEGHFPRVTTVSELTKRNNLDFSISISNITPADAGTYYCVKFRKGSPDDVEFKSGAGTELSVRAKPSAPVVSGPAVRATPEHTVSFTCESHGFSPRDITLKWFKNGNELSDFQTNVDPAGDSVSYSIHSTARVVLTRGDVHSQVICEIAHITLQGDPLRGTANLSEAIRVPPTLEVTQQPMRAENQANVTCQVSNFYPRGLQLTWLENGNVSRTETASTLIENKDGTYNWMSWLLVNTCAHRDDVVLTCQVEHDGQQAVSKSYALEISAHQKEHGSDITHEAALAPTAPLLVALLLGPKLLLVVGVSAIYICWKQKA
Sequence of SIRPγ (Q9P1W8 29-387): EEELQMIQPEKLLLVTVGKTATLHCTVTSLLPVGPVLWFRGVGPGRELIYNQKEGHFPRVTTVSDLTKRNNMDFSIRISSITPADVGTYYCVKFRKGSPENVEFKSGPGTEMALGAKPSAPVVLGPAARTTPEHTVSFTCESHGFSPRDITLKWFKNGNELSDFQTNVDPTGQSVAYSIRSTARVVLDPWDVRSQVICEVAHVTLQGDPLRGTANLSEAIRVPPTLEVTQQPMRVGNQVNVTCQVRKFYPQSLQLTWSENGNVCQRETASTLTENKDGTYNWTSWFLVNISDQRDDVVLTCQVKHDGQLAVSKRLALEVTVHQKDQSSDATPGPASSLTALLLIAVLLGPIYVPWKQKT

Q: With `O=P1(N(CCCl)CCCl)NCCCO1` (stereo not shown) [Cyclophosphamide] as the molecule, how does the ICD induction (cancer cells) read?
A: inducing ICD

Q: With `CC(=O)O[C@@]12CO[C@@H]1C[C@H](O)[C@@]1(C)C(=O)[C@H](O)C3=C(C)[C@@H](OC(=O)[C@H](O)[C@@H](NC(=O)OC(C)(C)C)c4ccccc4)C[C@@](O)([C@@H](OC(=O)c4ccccc4)[C@H]21)C3(C)C` [Docetaxel] as the molecule, how does the ICD induction (cancer cells) read?
A: not confirmed to induce ICD

Q: With `CO[C@@]12[C@H](COC(N)=O)C3=C(C(=O)C(C)=C(N)C3=O)N1C[C@@H]1N[C@@H]12` [Mitomycin C] as the molecule, how does the ICD induction (cancer cells) read?
A: not confirmed to induce ICD

Q: Which ICD induction (cancer cells) does the source give for `O=C1[O][Pt]2([NH][C@@H]3CCCC[C@H]3[NH]2)[O]C1=O` [Oxaliplatin] here?
A: inducing ICD

Q: For “ADU-1805: anti-SIRPα IgG2 antibody of WO 2018/190719, SEQ ID NO: 28 and 29”, which “binding to SIRPγ” value (SIRPγ) is on record?
A: binds

Q: And the “binding to all 10 types of SIRPα variant” value [1]?
A: binds

Q: What does the source list for “KWAR23: anti-SIRPα antibody of WO 2018/026600, SEQ ID NO: 26 and 27”?
A: binding to SIRPβ1 (SIRPβ1): binds; binding to SIRPγ (SIRPγ): binds; binding to all 10 types of SIRPα variant [1]: binds

Q: With “OSE-172: anti-SIRPα IgG4Pro antibody of WO 2017/178653, SEQ ID NO: 24 and 25” as the molecule, how does the “binding to SIRPα V1” value (SIRPα V1) read?
A: binds

Q: And the “binding to SIRPβ1” value (SIRPβ1)?
A: binds

B1: 5C12: rat-derived anti-mouse SIRPα surrogate antibody, heavy and light chain SEQ ID NOs: 30 and 31 (antibody, listed as Mus musculus)
heavy: MKHLWFFLLLVAAPRWVLSEVQLVESGGGLVQPGGSLKLSCAASGFTFSNYDMAWVRQAPTKGLEWVASISTRGGSSYYRDSVKGRFTVSRDNAKSTLYLQMDSLRSEDTATYYCARHPGDYFDYWGQGVMVTVSSAKTTPPSVYPLAPGSAAQTNSMVTLGCLVKGYFPEPVTVTWNSGSLSSGVHTFPAVLQSDLYTLSSSVTVPSSTWPSETVTCNVAHPASSTKVDKKIVPRDCGCKPCICTVPEVSSVFIFPPKPKDVLTITLTPKVTCVVVAISKDDPEVQFSWFVDDVEVHTAQTQPREEQFNSTFRSVSELPIMHQDWLNGKEFKCRVNSAAFPAPIEKTISKTKGRPKAPQVYTIPPPKEQMAKDKVSLTCMITDFFPEDITVEWQWNGQPAENYKNTQPIMDTDGSYFVYSKLNVQKSNWEAGNTFTCSVLHEGLHNHHTEKSLSHSPGK
light: MVLQTQVFISLLLWISGAYGDTVLTQSPALAVSPGERVTISCRASESVSTLIHWYQQKPGQQPKLLIYLTSHLESGVPARFSGSGSGTDFTLTIDPVEADDTATYYCQQSWTHPWTFGGGTKLELKRADAAPTVSIFPPSSEQLTSGGASVVCFLNNFYPKDINVKWKIDGSERQNGVLNSWTDQDSKDSTYSMSSTLTLTKDEYERHNSYTCEATHKTSTSPIVKSFNRNEC
Q: With B1 as the molecule, how does the “antitumor effect (tumor volume) compared to the control group” value (4T1-hmHER2 cells) read?
A: significantly stronger antitumor effect

Q: What about the “antitumor effect (tumor volume) compared to the control group” value (CT26.WT-hTROP2 cells) of the same molecule?
A: partial antitumor effect

Q: And the “antitumor effect (tumor volume) compared to the control group” value (CT26.WT-HER3 cells)?
A: no therapeutic effect

Q: And the “binding affinity to mouse SIRPα antigen compared with that of hD13_H1L3 to a human SIRPα antigen” value (mouse SIRPα antigen)?
A: at the same level

Q: What about the “binding affinity to the mouse SIRPα antigen” value (mouse SIRPα antigen) of the same molecule?
A: high binding affinity
